T1: His-TF-TaGATA1 (Triticum aestivum (line CI12633), UniProt A0A5K7NI72 1-181)
T1 sequence: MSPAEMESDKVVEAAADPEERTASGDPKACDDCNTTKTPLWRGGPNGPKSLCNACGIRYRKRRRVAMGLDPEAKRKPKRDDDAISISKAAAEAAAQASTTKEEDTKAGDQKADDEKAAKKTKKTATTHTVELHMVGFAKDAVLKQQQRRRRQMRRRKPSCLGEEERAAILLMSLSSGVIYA


Legend:
His-TF-TaGATA1 [1] = target: T1, His-TF-TaGATA1; assay: EMSA
His-TF-TaGATA1 [2] = target: T1, His-TF-TaGATA1; assay: competition

Binder | binding result (His-TF-TaGATA1 [1]) | binding result (His-TF-TaGATA1 [2])
GATA-containing probe (dsDNA) DNA 1: AGTCGACGTGGATAATGGATCCTCGAGTGGATAATTCGATC DNA 2: GATCGAATTATCCACTCGAGGATCCATTATCCACGTCGACT | binds | –
unlabelled GATA-containing competitor (dsDNA) DNA 1: AGTCGACGTGGATAATGGATCCTCGAGTGGATAATTCGATC DNA 2: GATCGAATTATCCACTCGAGGATCCATTATCCACGTCGACT | – | binds

From PMC6913698
